Data taken from patent US20180327746, “Alpha-AMYLASE-BINDING NUCLEIC ACID MOLECULE AND USE THEREOF” (NEC Solution Innovators, Ltd., published 2018).

Legend:
alpha-amylase [1] = target: T1, alpha-amylase (Homo sapiens, UniProt P0DUB6 P0DUB6:16-511); assay: SPR; SPR buffer with 1 mM MgCl2, pH 7.4; Chi2 30.79; details: tags: none stated; commercial human alpha-amylase, Lee Biosolutions; label: 3' poly(dA)20 captured on biotin-poly(dT)20
T1 sequence: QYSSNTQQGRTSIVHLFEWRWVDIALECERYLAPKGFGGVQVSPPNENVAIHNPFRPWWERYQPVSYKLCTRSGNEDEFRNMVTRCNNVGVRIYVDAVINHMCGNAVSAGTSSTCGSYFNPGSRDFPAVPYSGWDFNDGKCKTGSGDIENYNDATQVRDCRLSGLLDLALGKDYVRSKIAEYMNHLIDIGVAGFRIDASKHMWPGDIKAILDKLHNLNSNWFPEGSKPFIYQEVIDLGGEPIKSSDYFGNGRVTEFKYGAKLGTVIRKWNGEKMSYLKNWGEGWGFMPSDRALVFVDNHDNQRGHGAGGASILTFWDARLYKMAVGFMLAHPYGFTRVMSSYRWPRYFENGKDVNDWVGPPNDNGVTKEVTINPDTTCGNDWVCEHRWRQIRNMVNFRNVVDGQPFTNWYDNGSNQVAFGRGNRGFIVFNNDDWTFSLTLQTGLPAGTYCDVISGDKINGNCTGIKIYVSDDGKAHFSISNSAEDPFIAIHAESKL
Method: (§1) Biotinylated poly(dT) at 5 μmol/L was injected to a flow cell of the sensor chip using ultrapure water (DDW), and the binding was allowed to proceed until the signal intensity (RU: Resonance Unit) reached about 900 RU. The biotinylated poly(dT) was prepared by biotinylating the 5′ end of 20-mer deoxythymidine. Then, the poly(dA)-added aptamer at 200 nmol/L was injected to the flow cell of the chip using an SPR buffer at a flow rate of 25 μL/min for 80 seconds, and the binding was allowed to proceed until the signal intensity reached about 800 RU. […] With 0 seconds being the start of the injection, the mean value of signal intensities from 115 seconds to 125 seconds was determined. […] Then, the value (B/A) obtained by dividing the protein binding measured value (B) by the aptamer immobilization measured value (A) was determined as a relative value (Relative Unit).
(§2) The binding ability of the aptamers was analyzed by SPR in the same manner as in Example 1, except that the concentration of the α-amylase in the specimen was set to a plurality of values. The concentration was set to 20 nmol/L, 10 nmol/L, 5 nmol/L, 2.5 nmol/L, and 1.25 nmol/L. Then, from the results obtained by the SPR analysis, the kinetic parameter and the chi-squared value were calculated.

alpha-amylase [2] = target: T1, alpha-amylase; assay: SPR; 400 nM amylase, 1 mM MgCl2, pH 7.4; details: tags: none stated; commercial human alpha-amylase, Lee Biosolutions; label: 3' poly(dA)20 captured on biotin-poly(dT)20
Method: The analysis of the binding ability was carried out using a ProteON XPR36 (BioRad) in accordance with its instructions for use.
First, as a sensor chip designed specifically for the ProteON, a streptavidin-immobilized chip (trade name: ProteOn NLC Sensor Chip, BioRad) was set in the ProteON XPR36. Biotinylated poly(dT) at 5 μmol/L was injected to a flow cell of the sensor chip using ultrapure water (DDW), and the binding was allowed to proceed until the signal intensity (RU: Resonance Unit) reached about 900 RU. The biotinylated poly(dT) was prepared by biotinylating the 5′ end of 20-mer deoxythymidine. Then, the poly(dA)-added aptamer at 200 nmol/L was injected to the flow cell of the chip using an SPR buffer at a flow rate of 25 μL/min for 80 seconds, and the binding was allowed to proceed until the signal intensity reached about 800 RU. […] Subsequently, the specimen was injected using the SPR buffer at a flow rate of 50 μL/min for 120 seconds, followed by washing performed by flowing the SPR buffer under the same conditions for 300 seconds. The concentration of the human α-amylase in the specimen was set to 400 nmol/L. Signal intensity measurement was performed concurrently with the injection of the specimen and the washing with the SPR buffer. With 0 seconds being the start of the injection, the mean value of signal intensities from 115 seconds to 125 seconds was determined. […] Then, the value (B/A) obtained by dividing the protein binding measured value (B) by the aptamer immobilization measured value (A) was determined as a relative value (Relative Unit).

chromogranin A (CgA) = target: T2, chromogranin A (CgA) (Homo sapiens, UniProt P10645 P10645:19-457); assay: capillary electrophoresis specificity control; details: tags: N-terminal His-tag; full length, Creative BioMart CHGA-26904TH; label: 5' TYE665
T2 sequence: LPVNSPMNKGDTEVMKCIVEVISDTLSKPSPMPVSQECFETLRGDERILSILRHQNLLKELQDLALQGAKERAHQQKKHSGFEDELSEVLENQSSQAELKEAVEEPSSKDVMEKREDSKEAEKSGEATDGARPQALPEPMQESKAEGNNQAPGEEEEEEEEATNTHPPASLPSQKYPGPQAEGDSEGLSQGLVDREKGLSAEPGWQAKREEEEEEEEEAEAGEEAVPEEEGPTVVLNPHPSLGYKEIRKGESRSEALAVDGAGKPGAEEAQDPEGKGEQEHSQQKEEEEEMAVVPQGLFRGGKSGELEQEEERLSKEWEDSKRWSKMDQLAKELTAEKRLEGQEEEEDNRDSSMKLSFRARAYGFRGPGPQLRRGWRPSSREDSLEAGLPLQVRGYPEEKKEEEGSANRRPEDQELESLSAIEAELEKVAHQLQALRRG
Method: (§3) Reaction solutions containing the labeled aptamer (SEQ ID NO: 1) were prepared. Each of the reaction solutions was subjected to CAE under the following conditions. The reaction solution was caused to migrate while separating the components therefrom, and the fluorescence at a maximum absorption wavelength (665 nm) of the fluorescent substance was measured. As the reaction solutions, the following four types of reaction solutions were used: a reaction solution 1 containing the labeled aptamer only; a reaction solution 2 containing the labeled aptamer and the α-amylase; a reaction solution 3 containing the labeled aptamer and the saliva; and a reaction solution 4 containing the labeled aptamer as the negative control and the saliva. In each of the reaction solutions, the concentration of the labeled aptamer was 200 nmol/L. In the reaction solution 2, the concentration of the α-amylase was 2 μmol/L. In the reaction solutions 3 and 4, the concentration of the saliva was 10%. The reminder of each of the reaction solutions was a buffer solution. The composition of the buffer solution was as follows: 40 mmol/L HEPES (pH 7.5), 125 mmol/L NaCl, 5 mmol/L KCl, and 1 mmol/L MgCl₂.
(§4) Preparation of the reaction solution 2 and the binding ability analysis by CAE were carried out in the same manner as in the above item (3), except that the labeled aptamers (SEQ ID NOs: 1, 2, 3, and 19) were used. Further, in order to examine the specificity of the labeled aptamers to the α-amylase, the binding ability analysis by CAE was performed in the same manner as in the case where the above-described reaction solution 2 was used, except that, instead of the α-amylase, human chromogranin A (CgA, recombinant full length protein, Creative BioMart, #CHGA-26904TH) or human IgA (secretory, Biomedicals, LLC-Cappel Products, #55905), each having a His-tag fused at the N terminus were used.

alpha-amylase [3] = target: T1, alpha-amylase; assay: capillary electrophoresis; 200 nM aptamer, 2 uM amylase, 1 mM MgCl2; details: tags: none stated; commercial human alpha-amylase, Lee Biosolutions; label: 5' TYE665
Method: as §3, §4

alpha-amylase [4] = target: T1, alpha-amylase; assay: SPR; SPR buffer with 1 mM MgCl2, pH 7.4; Chi2 29.33; details: tags: none stated; commercial human alpha-amylase, Lee Biosolutions; label: 3' poly(dA)20 captured on biotin-poly(dT)20
Method: as §1, §2

alpha-amylase [5] = target: T1, alpha-amylase; assay: SPR; SPR buffer with 1 mM MgCl2, pH 7.4; Chi2 24.85; details: tags: none stated; commercial human alpha-amylase, Lee Biosolutions; label: 3' poly(dA)20 captured on biotin-poly(dT)20
Method: as §1, §2

alpha-amylase [6] = target: T1, alpha-amylase; assay: SPR; SPR buffer with 1 mM MgCl2, pH 7.4; Chi2 5.69; details: tags: none stated; commercial human alpha-amylase, Lee Biosolutions; label: 3' poly(dA)20 captured on biotin-poly(dT)20
Method: as §1, §2

alpha-amylase [7] = target: T1, alpha-amylase; assay: SPR; SPR buffer with 1 mM MgCl2, pH 7.4; Chi2 23.63; details: tags: none stated; commercial human alpha-amylase, Lee Biosolutions; label: 3' poly(dA)20 captured on biotin-poly(dT)20
Method: as §1, §2

B1: AML1243KR8m3s63Fw_s15 (ssDNA)
DNA: TAACGCCGCCTATTGCGAGGTGTGGCTAGTCGTTATAGGTCCACCGAGTTGCACCAAAAAAAAAAAAAAAAAAAA
modifications: KS9 modified T (formula 1) at underlined T, i.e. T 3' of the 5' primer region
Q: For B1, which Kd (alpha-amylase [1]) is on record?
A: 18.7 nM

B2: AML2243KR8m3 (ssDNA)
DNA: GGATACCTTAACGCCGCCTATTGGTGTCACTAGTGTTTGTCGGTGCCAGCAAGGAGTTGCACCCGTCTCGAAATCAAAAAAAAAAAAAAAAAAAA
modifications: KS9 modified T (formula 1) at underlined T, i.e. T 3' of the 5' primer region
Q: Does B2 bind (alpha-amylase [2])?
A: binds

B3: TYE665-AML1243KR8m2 (ssDNA)
DNA: GGATACCTTAACGCCGCCTATTGCTATGAGTAGTGTTTGTAGGTCTGGCATGCGAGTTGCACCCGTCTCGAAATC
modifications: KS9 modified T (formula 1) at underlined T, i.e. T 3' of the 5' primer region
Q: Which results are given for B3?
A: binding result (chromogranin A (CgA)): no binding; binding result (alpha-amylase [3]): binds

B4: AML1243KR8m3s63Fw_s20 (ssDNA)
DNA: TACCTTAACGCCGCCTATTGCGAGGTGTGGCTAGTCGTTATAGGTCCACCGAGTTGCACCAAAAAAAAAAAAAAAAAAAA
modifications: KS9 modified T (formula 1) at underlined T, i.e. T 3' of the 5' primer region
Q: For B4, which Kd (alpha-amylase [4]) is on record?
A: 16.6 nM

B5: AML1243KR8m2s49Fw_s20 (ssDNA)
DNA: TACCTTAACGCCGCCTATTGCTATGAGTAGTGTTTGTAGGTCTGGCAAAAAAAAAAAAAAAAAAAA
modifications: KS9 modified T (formula 1) at underlined T, i.e. T 3' of the 5' primer region
Q: With B5 as the binder, how does the Kd (alpha-amylase [5]) read?
A: 4.23 nM

B6: Amy_258KK10R8m4 (ssDNA)
DNA: GGTTACGCCCAGGACACATTTCTGTAGTGAAGTCCTGGTTGGCAAATTCATGGTAAGCTCGGTCTCCTCGGATAATCAAAAAAAAAAAAAAAAAAAA
modifications: KK10 modified T (formula 2) at double-underlined T, i.e. T 3' of the 5' primer region
Q: Which Kd (alpha-amylase [6]) does the source give for B6 here?
A: 7.34 nM

B7: AML1243KR8m3s63 (ssDNA)
DNA: GGATACCTTAACGCCGCCTATTGCGAGGTGTGGCTAGTCGTTATAGGTCCACCGAGTTGCACCAAAAAAAAAAAAAAAAAAAA
modifications: KS9 modified T (formula 1) at underlined T, i.e. T 3' of the 5' primer region
Q: For B7, which Kd (alpha-amylase [7]) is on record?
A: 16.4 nM

B8: Amy_258KK10R8m3 (ssDNA)
DNA: GGTTACGCCCAGGACACATTTCAGAGCGTAAACAGTCCTGGTTGGCAAATGTGTAAGCTCGGTCTCCTCGGATAATCAAAAAAAAAAAAAAAAAAAA
modifications: KK10 modified T (formula 2) at double-underlined T, i.e. T 3' of the 5' primer region
Q: Does B8 bind (alpha-amylase [2])?
A: binds
